# Patent US20160264649A1
# What was measured:
# Assay in all cases: cell-based or functional assay
# [1] = molecular target: HIV-1 TRO.11 (Acute) Env on pseudovirus (HIV-1)
# [2] = molecular target: HIV-1 6535.3 (Acute) Env on pseudovirus (HIV-1)
# [3] = molecular target: HIV-1 MGRM-F1-014 Env (HIV-1)
# [4] = molecular target: HIV-1 MGRM-G-024 Env (HIV-1)
# [5] = molecular target: HIV-1 LAVI_C3 Env on pseudovirus (HIV-1)
# [6] = molecular target: HIV-1 92TH021 Env (HIV-1)
# [7] = molecular target: HIV-1 MGRM-C-005 Env on pseudovirus (HIV-1)
# [8] = molecular target: HIV-1 98CN006 Env on pseudovirus (HIV-1)
# [9] = molecular target: HIV-1 PVO.4 (Acute) Env on pseudovirus (HIV-1)
# [10] = molecular target: HIV-1 MGRM-Chronic-B-003 Env on pseudovirus (HIV-1)
# [11] = molecular target: HIV-1 MGRM-AG-002 Env (HIV-1)
# [12] = molecular target: HIV-1 IAVI-C18 Env (HIV-1)
# [13] = molecular target: HIV-1 98CN009 Env on pseudovirus (HIV-1)
# [14] = molecular target: HIV-1 MGRM-D-022 Env (HIV-1)
# [15] = molecular target: HIV-1 MGRM-AG-008 Env (HIV-1)
# [16] = molecular target: HIV-1 MGRM-AG-003 Env (HIV-1)
# [17] = molecular target: HIV-1 MGRM-Chronic-B-010 Env on pseudovirus (HIV-1)
# [18] = molecular target: HIV-1 MGRM-AE-001 Env (HIV-1)
# [19] = molecular target: HIV-1 MGRM-AE-004 Env (HIV-1)
# [20] = molecular target: HIV-1 MGRM-F1-012 Env (HIV-1)
# [21] = molecular target: HIV-1 IAVI-C22 Env (HIV-1)
# [22] = molecular target: HIV-1 MGRM-AG-001 Env (HIV-1)
# [23] = molecular target: HIV-1 MGRM-Chronic-B-001 Env on pseudovirus (HIV-1)
# [24] = molecular target: HIV-1 LAVIC_18 Env on pseudovirus (HIV-1)
# [25] = molecular target: HIV-1 MGRM-C-024 Env on pseudovirus (HIV-1)
# [26] = molecular target: HIV-1 MGRM-G-004 Env (HIV-1)
# [27] = molecular target: HIV-1 MGRM-C-014 Env on pseudovirus (HIV-1)
# [28] = molecular target: HIV-1 MGRM-D-026 Env (HIV-1)
# [29] = molecular target: HIV-1 MGRM-F1-010 Env (HIV-1)
# [30] = molecular target: HIV-1 94UG103 Env (HIV-1)
# aMLV envelope = molecular target: aMLV envelope
# [31] = molecular target: HIV-1 VLGCB3 Env on pseudovirus (HIV-1)
# [32] = molecular target: HIV-1 MGRM-G-019 Env (HIV-1)
# [33] = molecular target: HIV-1 MGRM-C-012 Env on pseudovirus (HIV-1)
# [34] = molecular target: HIV-1 MGRM-AG-006 Env (HIV-1)
# [35] = molecular target: HIV-1 MGRM-F1-008 Env (HIV-1)
# [36] = molecular target: HIV-1 MGRM-F1-022 Env (HIV-1)
# [37] = molecular target: HIV-1 MGRM-F1-020 Env (HIV-1)
# [38] = molecular target: HIV-1 MGRM-C-001 Env on pseudovirus (HIV-1)
# [39] = molecular target: HIV-1 MGRM-AE-008 Env (HIV-1)
# [40] = molecular target: HIV-1 MGRM-C-022 Env on pseudovirus (HIV-1)
# [41] = molecular target: HIV-1 MGRM-D-021 Env (HIV-1)
# HIV-1 CMU02 Env (HIV-1) = molecular target: HIV-1 CMU02 Env (HIV-1)
# [42] = molecular target: HIV-1 APV_17 Env on pseudovirus (HIV-1)
# [43] = molecular target: HIV-1 92BR020 Env on pseudovirus (HIV-1)
# [44] = molecular target: HIV-1 MGRM-D-005 Env (HIV-1)
# [45] = molecular target: HIV-1 MGRM-D-014 Env (HIV-1)
# [46] = molecular target: HIV-1 MGRM-C-002 Env on pseudovirus (HIV-1)
# [47] = molecular target: HIV-1 NL43 Env on pseudovirus (HIV-1)
# [48] = molecular target: HIV-1 MGRM-C-017 Env on pseudovirus (HIV-1)
# [49] = molecular target: HIV-1 MGRM-C-013 Env on pseudovirus (HIV-1)
substance,measurement,setting,value
b12 (antibody),IC50,[1],> 50 µg/mL
same,IC50,[2],1.93 µg/mL
same,IC50 (pseudovirus neutralization),[3],> 50 µg/mL
same,"IC50 (µg/ml), pseudovirus neutralization",[4],2.38 µg/mL
same,IC50,[5],0.94 µg/mL
same,neutralization IC50,[6],9.99 µg/mL
same,neutralization IC90,[6],> 50 µg/mL
same,IC50,[7],2.66 µg/mL
same,IC50,[8],> 50 µg/mL
same,IC50,[9],> 50 µg/mL
same,IC50,[10],> 50 µg/mL
same,"IC50 (µg/ml), pseudovirus neutralization",[11],0.89 µg/mL
same,neutralization IC50,[12],> 50 µg/mL
same,neutralization IC90,[12],> 50 µg/mL
same,IC50,[13],1.52 µg/mL
same,"IC50 (µg/ml), pseudovirus neutralization",[14],17.6 µg/mL
same,"IC50 (µg/ml), pseudovirus neutralization",[15],> 50 µg/mL
same,"IC50 (µg/ml), pseudovirus neutralization",[16],> 50 µg/mL
same,IC50,[17],> 50 µg/mL
same,"IC50 (µg/ml), pseudovirus neutralization",[18],25.9 µg/mL
same,"IC50 (µg/ml), pseudovirus neutralization",[19],> 50 µg/mL
same,IC50 (pseudovirus neutralization),[20],> 50 µg/mL
same,neutralization IC50,[21],3.6 µg/mL
same,neutralization IC90,[21],29.6 µg/mL
same,"IC50 (µg/ml), pseudovirus neutralization",[22],11.9 µg/mL
same,IC50,[23],0.75 µg/mL
same,IC50,[24],> 50 µg/mL
same,IC50,[25],> 50 µg/mL
same,"IC50 (µg/ml), pseudovirus neutralization",[26],> 50 µg/mL
same,IC50,[27],> 50 µg/mL
same,"IC50 (µg/ml), pseudovirus neutralization",[28],1.55 µg/mL
same,IC50 (pseudovirus neutralization),[29],> 50 µg/mL
same,neutralization IC50,[30],3.54 µg/mL
same,neutralization IC90,[30],47.3 µg/mL
same,neutralization IC50,aMLV envelope,> 50 µg/mL
same,neutralization IC90,aMLV envelope,> 50 µg/mL
same,IC50,[31],0.15 µg/mL
same,"IC50 (µg/ml), pseudovirus neutralization",[32],3.77 µg/mL
same,IC50,[33],> 50 µg/mL
same,"IC50 (µg/ml), pseudovirus neutralization",[34],> 50 µg/mL
same,IC50 (pseudovirus neutralization),[35],> 50 µg/mL
same,IC50 (pseudovirus neutralization),[36],> 50 µg/mL
same,IC50 (pseudovirus neutralization),[37],> 50 µg/mL
same,IC50,[38],> 50 µg/mL
same,"IC50 (µg/ml), pseudovirus neutralization",[39],> 50 µg/mL
same,IC50,[40],> 50 µg/mL
same,"IC50 (µg/ml), pseudovirus neutralization",[41],5.23 µg/mL
same,"IC50 (µg/ml), pseudovirus neutralization",HIV-1 CMU02 Env (HIV-1),29.3 µg/mL
same,neutralization IC50,HIV-1 CMU02 Env (HIV-1),4.25 µg/mL
same,neutralization IC90,HIV-1 CMU02 Env (HIV-1),34.2 µg/mL
same,IC50,[42],> 50 µg/mL
same,IC50,[43],> 50 µg/mL
same,"IC50 (µg/ml), pseudovirus neutralization",[44],> 50 µg/mL
same,"IC50 (µg/ml), pseudovirus neutralization",[45],> 50 µg/mL
same,IC50,[46],> 50 µg/mL
same,IC50,[47],0.17 µg/mL
same,IC50,[48],> 50 µg/mL
same,IC50,[49],> 50 µg/mL
